{"source": "patent US20220387572A1", "about": "(CRISPR THERAPEUTICS, published 2022)", "target": "T1, CD70 on human CD70+ renal cell carcinoma cell lines (A498, CD70 high; ACHN, CD70 low) (human, UniProt P32970 1-193)", "T1 sequence (looked up)": "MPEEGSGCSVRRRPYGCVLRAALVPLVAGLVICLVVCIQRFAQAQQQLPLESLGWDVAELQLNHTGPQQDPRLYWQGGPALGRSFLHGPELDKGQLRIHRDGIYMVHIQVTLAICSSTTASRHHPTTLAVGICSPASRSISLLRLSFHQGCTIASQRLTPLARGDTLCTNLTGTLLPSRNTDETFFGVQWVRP", "assay": "cell-based or functional assay"}
{"binder": "anti-CD70 CAR (CD70B scFv with 41BB), expressed on CTX130 cells (TRAC-/β2M-/CD70-/anti-CD70 CAR+ T cells) (other) QVQLVQSGAEVKKPGASVKVSCKASGYTFTNYGMNWVRQAPGQGLKWMGWINTYTGEPTYADAFKGRVTMTRDTSISTAYMELSRLRSDDTAVYYCARDYGDYGMDYWGQGTTVTVSSGGGGSGGGGSGGGGSGDIVMTQSPDSLAVSLGERATINCRASKSVSTSGYSFMHWYQQKPGQPPKLLIYLASNLESGVPDRFSGSGSGTDFTLTISSLQAEDVAVYYCQHSREVPWTFGQGTKVEIKSAAAFVPVFLPAKPTTTPAPRPPTPAPTIASQPLSLRPEACRPAAGGAVHTRGLDFACDIYIWAPLAGTCGVLLLSLVITLYCNHRNRKRGRKKLLYIFKQPFMRPVQTTQEEDGCSCRFPEEEEGGCELRVKFSRSADAPAYQQGQNQLYNELNLGRREEYDVLDKRRGRDPEMGGKPRRKNPQEGLYNELQKDKMAEAYSEIGMKGERRRGKGHDGLYQGLSTATKDTYDALHMQALPPR", "values": [{"measurement": "cell killing (CellTiter-Glo), TRAC-/β2M-/CD70-/anti-CD70 CAR+ T cells on CD70+ A498 cells, 24 h, T cell:A498 ratios 1:1 and 0.5:1", "value": "> 90", "unit": "%"}, {"measurement": "cell killing (CellTiter-Glo), TRAC-/β2M-/anti-CD70 CAR+ T cells (2xKO) on CD70+ A498 cells, 24 h, T cell:A498 ratios 1:1 and 0.5:1", "value": "< 90", "unit": "%"}]}
